Source: the domain aggregation screens of Martell et al. (2025)

assay: soluble fraction after stress (log2 fold change); higher = more stays soluble; pooled small domains, quantitative proteomics; details: stress: 50 degC
How it was run: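 Pooled custom libraries of small protein domains were each held under stress at 50°C. The read-out, high-throughput quantitative proteomics, tracked how much of each protein stayed soluble. This is reported as a base-two log fold change used to indicate aggregation propensity. Higher values mean more protein remains in solution.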

“HMVKPKIILADIGMITETDVTLAKASQAVLIAFNVKPSKEAKKLAEDENIKISTYNIIYEVLDFVKKSMSG” and “HMNTKDRIKQLAAQRKITIAELERKLHIANGTIGKWDKQNPSIEPLKKLADYFGVTTDYLLGRT” are within 0.2 log units of each other in “soluble fraction (log2)” value: 0.12 for the first, 0.162 for the second.

“HMGIVAGGTQSIATLRAIDTTDAQLYPDKILINVEDAGLYRLDRQSTATDDGNQVIKPTVGVGRWLKMTS” and “HMPQLEDLEPLDSSGMVRRDGPHLVLAVGRHRGRHLEEVRDSDPSYLHWLLSPKGIEDIQAKEDIKTYLNL” are within 0.2 log units of each other in “soluble fraction (log2)” value: -0.11 for the first, 0.0519 for the second.

“HMKTYSEAQLKIALESLIENGKKQGYLTFQEINEILPDGIINTQDLKVIISILKETGIVVAKEKPEINIDV” and HMYATQLLQLEEMGFFDRAENIRALRATNGNVNAAVERL are within 0.2 log units of each other in “soluble fraction (log2)” value: 0.0784 for the first, 0.0407 for the second.

Compared with “HMKLIIVPNLVGQSRRSVEISLQQIGLRIDTVYTEFNPDYPKGTVAWQFPKSGDHIKKGMGLQITVSQG”, “HMTPFLVRVDISDLNIRTGAGTNYSRTGQYTGKGIFTILEVKSGQGSDAGWGRLKSGAGWISLDYTTR” is lower in “soluble fraction (log2)” value: -0.522 for the first, -2.82 for the second.

“HMPMHPEDLKKLVSIEMPFGKHKGRIIADLPGNYLNWFAREGFPPGEIGRLLQLMQEIDHNGLSDLLKPLR” and “HMSKKMLASIFDTISGIGKKRLKKIWDNYTSLNELKDDSLENIYAKTQIPINLITKIKEKLE” are within 0.2 log units of each other in “soluble fraction (log2)” value: -0.3 for the first, -0.37 for the second.

Compared with “HMNEYIVSAEQEGMRLDVFLTEQMEGSRSYIQSLIKGGHVTVGDKVGKANLRLTPDTVIHVEIPEPE”, “HMTFNEPSPKEIMDYSLSRGYKVDADAFIDFYRGKAKAYGKEGLWLDGRGRLVKDWRAKLRVVWFKDENKL” is lower in “soluble fraction (log2)” value: 0.0524 for the first, -1.22 for the second.

“HMTLGENLQNLRKEAGLSQEQVAQQLFVSRQTVSKWENNLAEPGVENLKALARLYGVTLDRLVGM” and “HMTDLVVGLAGITLEPLRPAGKAEFNGSVVDVVSLGDYIEKSTAIQIVEIEGNRIVVHHGED” are within 0.2 log units of each other in “soluble fraction (log2)” value: -0.0572 for the first, -0.0705 for the second.

“HMASVDDILDRFKQAAKVTTDADLAKVLGLSRQSIAAARLRAKIPASWFPKMSSLFNISTEWLYRG” and “HMHLYDMYNLTEKEISIIRLIANGLNNKEISQELFLSEGTIKNNITNILAKLELRDRTQLAIFAFKNKIVI” are within 0.2 log units of each other in “soluble fraction (log2)” value: -0.628 for the first, -0.484 for the second.

Compared with “HMFAVPAPEVDDILSEKKVDVLLLGPQVRYLLEQFTEKLKDKNIPIGVIPMVDYGMMNGSKVLALAEELIG”, “HMSSQLETTFATLIGKRVSIRLHDPEGGFRDILGHLESPYSLRNRHGNLIEFAHDQIFLWREVI” is lower in “soluble fraction (log2)” value: -0.0132 for the first, -0.951 for the second.

First: HMVQQTEEDVIRDMYVEGKIFTIGEEVTDTYTGVTGKIIRRGTNYVTFMSEDGETYKKWLYEIELA
Second: HMRPIWVQLADDFRHRIVSGQWPPGSKIPSVRELAAETGVNPNTVQRALGALDGEGLTATERTAGRFVTT
The “soluble fraction (log2)” value of the first is lower: -1 for the first, -0.0768 for the second.

Compared with “HMKKAENEKLNIPYDVTEFLASSIKDDIRMMEGAMVKLLALSSLTKQDITQSLAKRVIQDVLGSSA”, “HMETSIQFIRLEIGHNHPWVNQTLKEIPTIPGTLIAAVLRGDEDQAIIPKGDTLLKEGDSVIIGAKEYQD” is lower in “soluble fraction (log2)” value: -0.097 for the first, -0.919 for the second.

“HMKITFNPVSSGRLDIILAEKTGYTRSYVKQLVEKQAVTINGEAAKKSGQNVKAGDEIALDEP” and “HMGGVSTDKPLNWDADGTSKLTQEQIDYLRSTYDLSDMSKQDYYDLMADLTNMNAISIKDVISQYVK” are within 0.2 log units of each other in “soluble fraction (log2)” value: 0.0957 for the first, -0.0536 for the second.

“HMGLSIPLMGAKASDIEISTLNDEVQRKLKIIVKEQGHENLQRVVPLPSEAREIQAHFINGRLHLR” and “HMSLPQSKDAVITILRTLPQLDTRAPEVYKLLGPHALDIILEDPEQVAKKINHVGVATAKLWQQALLGFK” are within 0.2 log units of each other in “soluble fraction (log2)” value: -0.0466 for the first, -0.2 for the second.

First: HMALLSNEDIMFNLEFNRDLAVASNDGVSRDEFLRNKYGISEEEYNMLRARYGDGLNAARIKEYVGQRD
Second: HMQPDDELVRLLLIKIFNDKQLKVNPAVINYLLRRIDRSFESINNFVKKIDEFSLEKGRKITVNLVSGFF
The “soluble fraction (log2)” value of the first is higher: 0.104 for the first, -0.653 for the second.

“HMALKPKITIEELIRILNESKDLSDSETAKILNKDYTTAKYGKEFTSINVQGARYALDIATNTS” and “HMQDSSGENNPQSKLTQQQVDLLMKDLKETNVEFDKLAEKYNVSIKTIRNVNTGIAWRKNDITYPIREP” are within 0.2 log units of each other in “soluble fraction (log2)” value: -0.135 for the first, -0.204 for the second.

Going from “HMIDFDEQGNLWVHEMGPRHGDELNLIEKARNYGYPTVSQGDHYSGVKISNHEDIPIFKSPEKAWVPAISP” to “HMNYSIVNVGFNNKSLFLRSAPGYSASRLLLPFATERAFVRETLSNGWSRVIVRGTEGYLPTEYVAD”, the “soluble fraction (log2)” value rises from -0.0541 to 0.179.

Going from “HMNNNIFVYPNPSINYINIDSDEEIWKLEIIQMSGEKINILPFSKRIDISFLSKGLYILNFNNYYIKFIK” to “HMAFIEIMTEGDADGRGFQYPIPTYSITRDFDWSETENNKLLFEMTAKYGTPYFSNYINSDMEPSDV”, the “soluble fraction (log2)” value falls from -0.187 to -0.535.

First: HMGPWTETAAKGDAVSKRMLITWLQENADAEFLAAQKLTGQATSVAKRVTKDQLVELYLSVTTAA
Second: HMNILNYIIENENQEVRVDKFLSDTIEDMSRSSVASIIEDGGLLVNDKLQNKKYKLKIGDKVQFTVPDPV
The “soluble fraction (log2)” value of the first is lower: -0.53 for the first, 0.113 for the second.

For “HMISESLLDEIPGLGETRRNSLLREFGSVAMIRKASAEEIASRVRGIGAEFAAAIHDFLQTH”, the “soluble fraction (log2)” value was -0.0611.
